# B1: Interleukin-1 receptor-associated kinase 1 (Mus musculus), Q62406 (parent)
# chain: MAGGPGPGEPVVPGAQHFLYEVPPWVMCRFYKVMDALEPADWCQFAALIVRDQTELRLCERSEQRTASVLWPWINRNARVADLVHILTHLQLLRARDIITAWHPPAPVVPPSTAAPRPSSISAGSEAGDWSPRKLQSSASTFLSPAFPGSQTHSESELLQVPLPVSLGPPLPSSAPSSTKSSPESPVSGLQRAHPSPFCWPFCEISQGTCNFSEELRIGEGGFGCVYRAVMRNTTYAVKRLKEEADLEWTMVKQSFLTEVEQLSRFRHPNIVDFAGYCAESGLYCLVYGFLPNGSLEDQLHLQTQACSPLSWPQRLDILLGTARAIQFLHQDSPSLIHGDIKSSNVLLDERLMPKLGDFGLARFSRFAGAKASQSSTVARTSTVRGTLAYLPEEYIKTGRLAVDTDTFSFGVVILETLAGQRAVRTQGAKTKYLKDLIEDEAEEAGVTLKSTQPTLWVGVATDAWAAPIAAQIYKKHLDSRPGPCPPQLGLALAQLACCCMHRRAKKRPPMTQVYKRLEGLQAGPPWELEVAGHGSPSPQENSYMSTTGSAQSGDEPWQPLVVTTRAPAQAAQQLQRSPNQPVESDESVPGLSATLHSWHLTPGSHPSPASFREASCTQGGTTRESSVRSSPGFQPTTMEGSPTGSSSLLSSEPPQIIINPARQKMVQKLALYEEGVLDSLQLLSSGFFPGLDLEPEKSQGPEESDEFQS
# Variants of: B1
# Settings: with tolip_mouse Tollip
row,Variant,effect of a mutation on the interaction
1,T66A,decreasing interaction

# Source: IntAct's records for PubMed 10854325
